Measurements reported in US20210137940A1 (AstraZeneca / MedImmune, published 2021).

B1: HAKA-A (ADC of J415RHA+J415RKA anti-PSMA antibody conjugated to drug linker A) (antibody, V domains shown)
VH: EVQLVESGGGLVQPGGSLKLSCAASGFTFSNYWMNWVRQASGKGLEWVGEIRSQSNNFATHYAESVKGRFTISRDDSKNTAYLQMNSLKTEDTAVYYCTRRWNNFWGQGTTVTVSS
VL: DIQMTQSPSSVSASVGDRVTITCKASENVGTYVSWYQQKPGTAPKLLIYGASNRFTGVPSRFSGSGSATDFTLTINNLQPEDFATYYCGQSYTFPYTFGQGTKVEIK
modifications: PBD drug linker A conjugated to reduced cysteine thiols (positions not stated); measured DAR 1.17 per antibody
B2: HAKB-A (ADC of J415RHA+J415RKB anti-PSMA antibody conjugated to drug linker A) (antibody, V domains shown)
VH: B1 VH
VL: B1 VL
modifications: PBD drug linker A conjugated to reduced cysteine thiols (positions not stated); measured DAR 1.86 per antibody

Biological target: Prostate-Specific Membrane Antigen (PSMA), as expressed on LNCaP cells (human, UniProt Q04609 1-750)
Sequence (Q04609 whole entry): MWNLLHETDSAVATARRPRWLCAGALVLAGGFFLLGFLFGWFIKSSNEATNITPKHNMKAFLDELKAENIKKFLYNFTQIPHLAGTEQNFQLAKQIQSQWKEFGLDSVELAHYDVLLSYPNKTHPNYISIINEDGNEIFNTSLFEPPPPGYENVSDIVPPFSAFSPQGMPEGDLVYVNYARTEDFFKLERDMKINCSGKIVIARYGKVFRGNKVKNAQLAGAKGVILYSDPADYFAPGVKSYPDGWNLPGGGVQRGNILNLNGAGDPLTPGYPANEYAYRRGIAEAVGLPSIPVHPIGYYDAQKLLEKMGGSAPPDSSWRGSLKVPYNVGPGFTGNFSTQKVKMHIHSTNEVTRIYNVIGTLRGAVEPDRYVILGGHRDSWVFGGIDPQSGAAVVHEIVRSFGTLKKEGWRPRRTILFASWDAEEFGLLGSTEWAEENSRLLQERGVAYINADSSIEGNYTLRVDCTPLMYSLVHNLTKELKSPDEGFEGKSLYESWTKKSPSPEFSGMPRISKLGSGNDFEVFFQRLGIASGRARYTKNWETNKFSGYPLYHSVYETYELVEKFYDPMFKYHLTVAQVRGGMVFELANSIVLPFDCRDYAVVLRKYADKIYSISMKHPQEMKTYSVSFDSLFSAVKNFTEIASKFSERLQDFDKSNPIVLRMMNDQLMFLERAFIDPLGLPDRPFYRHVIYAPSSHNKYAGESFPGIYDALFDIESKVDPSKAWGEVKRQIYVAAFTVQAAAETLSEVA
Experiment: cell-based or functional assay

Row | Binder | EC50 (µg/mL), in vitro cytotoxicity on LNCaP cells (Alamar Blue cell survival, 4-day incubation)
1 | B1 | 0.00186 µg/mL
2 | B2 | 0.00163 µg/mL
